This assay deals with recombinant DR4 extracellular domain (UniProt O00220).
Chain of recombinant DR4 extracellular domain (O00220 24-239): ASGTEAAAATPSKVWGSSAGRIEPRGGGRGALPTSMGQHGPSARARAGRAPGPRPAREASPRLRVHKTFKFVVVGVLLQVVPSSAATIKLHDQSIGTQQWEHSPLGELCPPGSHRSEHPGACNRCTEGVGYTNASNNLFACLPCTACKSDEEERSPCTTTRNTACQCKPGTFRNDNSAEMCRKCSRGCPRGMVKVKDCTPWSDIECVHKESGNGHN

For “TRAIL (tumor necrosis factor-associated ligand inducing apoptosis), recombinant, amino acid residues 114-280 (from UniProt P50591 114-280)”, the decrease of surface DR4 on HCT116 and HT-29 cells with 1,000 ng/ml TRAIL, time course, flow cytometry is 90%.

(Values after paper PMC8514705.)
